IntAct's records for PubMed 21946559

B1: Leucine-rich repeat-containing protein 4C (Homo sapiens), Q9HCJ2 (parent)
chain: MLNKMTLHPQQIMIGPRFNRALFDPLLVVLLALQLLVVAGLVRAQTCPSVCSCSNQFSKVICVRKNLREVPDGISTNTRLLNLHENQIQIIKVNSFKHLRHLEILQLSRNHIRTIEIGAFNGLANLNTLELFDNRLTTIPNGAFVYLSKLKELWLRNNPIESIPSYAFNRIPSLRRLDLGELKRLSYISEGAFEGLSNLRYLNLAMCNLREIPNLTPLIKLDELDLSGNHLSAIRPGSFQGLMHLQKLWMIQSQIQVIERNAFDNLQSLVEINLAHNNLTLLPHDLFTPLHHLERIHLHHNPWNCNCDILWLSWWIKDMAPSNTACCARCNTPPNLKGRYIGELDQNYFTCYAPVIVEPPADLNVTEGMAAELKCRASTSLTSVSWITPNGTVMTHGAYKVRIAVLSDGTLNFTNVTVQDTGMYTCMVSNSVGNTTASATLNVTAATTTPFSYFSTVTVETMEPSQDEARTTDNNVGPTPVVDWETTNVTTSLTPQSTRSTEKTFTIPVTDINSGIPGIDEVMKTTKIIIGCFVAITLMAAVMLVIFYKMRKQHHRQNHHAPTRTVEIINVDDEITGDTPMESHLPMPAIEHEHLNHYNSYKSPFNHTTTVNTINSIHSSVHEPLLIRMNSKDNVQETQI
partner: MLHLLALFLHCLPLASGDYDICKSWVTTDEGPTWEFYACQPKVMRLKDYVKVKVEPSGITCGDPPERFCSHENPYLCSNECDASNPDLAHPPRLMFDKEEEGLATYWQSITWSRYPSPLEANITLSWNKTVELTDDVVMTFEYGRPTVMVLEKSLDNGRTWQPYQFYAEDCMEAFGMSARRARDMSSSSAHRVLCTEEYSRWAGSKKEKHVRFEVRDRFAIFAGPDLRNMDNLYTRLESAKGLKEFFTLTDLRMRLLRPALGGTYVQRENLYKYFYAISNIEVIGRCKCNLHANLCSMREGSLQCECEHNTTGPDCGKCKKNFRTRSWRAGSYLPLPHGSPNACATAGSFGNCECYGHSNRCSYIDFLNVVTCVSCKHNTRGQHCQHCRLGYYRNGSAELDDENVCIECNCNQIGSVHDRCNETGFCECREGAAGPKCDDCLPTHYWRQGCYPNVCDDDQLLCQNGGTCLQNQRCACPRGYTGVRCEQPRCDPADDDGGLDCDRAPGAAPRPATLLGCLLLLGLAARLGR
B2: Netrin-G1 (Homo sapiens), Q9Y2I2 (parent)
chain: MYLSRFLSIHALWVTVSSVMQPYPLVWGHYDLCKTQIYTEEGKVWDYMACQPESTDMTKYLKVKLDPPDITCGDPPETFCAMGNPYMCNNECDASTPELAHPPELMFDFEGRHPSTFWQSATWKEYPKPLQVNITLSWSKTIELTDNIVITFESGRPDQMILEKSLDYGRTWQPYQYYATDCLDAFHMDPKSVKDLSQHTVLEIICTEEYSTGYTTNSKIIHFEIKDRFAFFAGPRLRNMASLYGQLDTTKKLRDFFTVTDLRIRLLRPAVGEIFVDELHLARYFYAISDIKVRGRCKCNLHATVCVYDNSKLTCECEHNTTGPDCGKCKKNYQGRPWSPGSYLPIPKGTANTCIPSISSIGNCECFGHSNRCSYIDLLNTVICVSCKHNTRGQHCELCRLGYFRNASAQLDDENVCIECYCNPLGSIHDRCNGSGFCECKTGTTGPKCDECLPGNSWHYGCQPNVCDNELLHCQNGGTCHNNVRCLCPAAYTGILCEKLRCEEAGSCGSDSGQGAPPHGSPALLLLTTLLGTASPLVF
partner: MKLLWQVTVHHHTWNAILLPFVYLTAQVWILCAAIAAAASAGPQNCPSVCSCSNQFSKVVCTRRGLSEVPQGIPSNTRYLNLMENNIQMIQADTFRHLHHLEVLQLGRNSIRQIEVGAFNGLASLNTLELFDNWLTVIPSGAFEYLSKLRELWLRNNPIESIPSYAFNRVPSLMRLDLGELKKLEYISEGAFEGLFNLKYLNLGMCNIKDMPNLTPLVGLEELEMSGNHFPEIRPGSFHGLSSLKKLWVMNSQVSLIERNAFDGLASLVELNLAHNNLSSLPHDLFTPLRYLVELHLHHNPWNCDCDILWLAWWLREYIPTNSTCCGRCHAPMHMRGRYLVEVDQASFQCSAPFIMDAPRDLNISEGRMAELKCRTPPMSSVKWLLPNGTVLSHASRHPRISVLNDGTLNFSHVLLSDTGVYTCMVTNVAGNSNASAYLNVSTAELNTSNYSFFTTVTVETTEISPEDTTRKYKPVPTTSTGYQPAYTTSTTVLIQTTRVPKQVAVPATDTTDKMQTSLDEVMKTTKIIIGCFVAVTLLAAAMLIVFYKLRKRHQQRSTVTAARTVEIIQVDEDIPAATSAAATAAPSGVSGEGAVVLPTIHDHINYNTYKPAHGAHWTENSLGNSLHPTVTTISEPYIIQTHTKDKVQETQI
B3: Netrin-G2 (Homo sapiens), Q96CW9 (parent)
chain: B1 partner
partner: B1 chain
B4: Netrin-G1 (Homo sapiens), Q9Y2I2 (parent)
chain: B2 chain
partner: B1 chain
B5: Leucine-rich repeat-containing protein 4 (Homo sapiens), Q9HBW1 (parent)
chain: B2 partner
partner: B2 chain
B6: Netrin-G2 (Homo sapiens), Q96CW9 (parent)
chain: B1 partner
partner: B2 partner
B7: Leucine-rich repeat-containing protein 4 (Homo sapiens), Q9HBW1 (parent)
chain: B2 partner
partner: B1 partner
B8: Leucine-rich repeat-containing protein 4C (Homo sapiens), Q9HCJ2 (parent)
chain: B1 chain
partner: B2 chain

Variants of: B1
Details: with ntng2_human NTNG2, Q96CW9

Row | effect of a mutation on the interaction | Variant
1 | disrupting interaction | A205T

Variants of: B2
Details: with lrrc4_human LRRC4, Q9HBW1

Row | effect of a mutation on the interaction | Variant
2 | disrupting interaction | P85A
3 | disrupting interaction | Y86T

Variants of: B3
Details: with lrc4c_human LRRC4C, Q9HCJ2

Row | effect of a mutation on the interaction | Variant
4 | disrupting interaction | P74A
5 | disrupting interaction | Y75T

Variants of: B4
Details: with lrc4c_human LRRC4C, Q9HCJ2

Row | effect of a mutation on the interaction | Variant
6 | disrupting interaction | P85A
7 | disrupting interaction | Y86T

Variants of: B5
Details: with ntng1_human NTNG1, Q9Y2I2

Row | effect of a mutation on the interaction | Variant
8 | disrupting interaction | G204T

Variants of: B6
Details: with lrrc4_human LRRC4, Q9HBW1

Row | effect of a mutation on the interaction | Variant
9 | disrupting interaction | Y75T
10 | disrupting interaction | P74A

Variants of: B7
Details: with ntng2_human NTNG2, Q96CW9

Row | effect of a mutation on the interaction | Variant
11 | disrupting interaction | G204T

Variants of: B8
Details: with ntng1_human NTNG1, Q9Y2I2

Row | effect of a mutation on the interaction | Variant
12 | disrupting interaction | A205T
